Results published in US20240409906, “INTEGRASES, LANDING PAD ARCHITECTURES, AND ENGINEERED CELLS COMPRISING THE SAME” (Asimov Inc., published 2024).

T1: Int27 (Lactococcus lactis subsp. lactis CV56)
T1 chain: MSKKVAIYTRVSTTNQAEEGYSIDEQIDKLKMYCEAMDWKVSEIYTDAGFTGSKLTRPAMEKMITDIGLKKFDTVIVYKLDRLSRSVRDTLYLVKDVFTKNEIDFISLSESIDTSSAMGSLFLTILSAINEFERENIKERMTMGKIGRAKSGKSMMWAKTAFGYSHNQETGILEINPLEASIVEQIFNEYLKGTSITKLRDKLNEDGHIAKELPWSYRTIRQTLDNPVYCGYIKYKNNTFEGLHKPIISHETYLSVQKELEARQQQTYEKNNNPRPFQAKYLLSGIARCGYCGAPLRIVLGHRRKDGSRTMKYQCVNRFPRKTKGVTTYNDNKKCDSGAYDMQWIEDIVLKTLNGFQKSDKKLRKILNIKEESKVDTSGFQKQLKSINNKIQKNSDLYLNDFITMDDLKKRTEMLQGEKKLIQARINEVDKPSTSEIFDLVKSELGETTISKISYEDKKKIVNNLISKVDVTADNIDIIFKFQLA

T2: Int34 (Staphylococcus lugdunensis HKU09-01)
T2 chain: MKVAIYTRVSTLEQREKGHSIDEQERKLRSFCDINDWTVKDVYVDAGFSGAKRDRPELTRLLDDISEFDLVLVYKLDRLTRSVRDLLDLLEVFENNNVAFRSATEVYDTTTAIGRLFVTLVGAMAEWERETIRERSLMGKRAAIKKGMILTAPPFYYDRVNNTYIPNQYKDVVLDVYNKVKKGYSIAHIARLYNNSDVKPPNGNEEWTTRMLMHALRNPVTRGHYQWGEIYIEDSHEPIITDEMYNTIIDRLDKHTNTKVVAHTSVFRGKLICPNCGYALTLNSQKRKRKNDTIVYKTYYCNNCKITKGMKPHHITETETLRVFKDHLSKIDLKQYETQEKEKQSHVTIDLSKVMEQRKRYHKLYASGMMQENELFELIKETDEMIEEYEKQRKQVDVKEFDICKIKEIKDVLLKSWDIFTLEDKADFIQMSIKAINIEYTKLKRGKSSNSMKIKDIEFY

T3: Int7 (Geobacillus sp. Y412MC61)
T3 chain: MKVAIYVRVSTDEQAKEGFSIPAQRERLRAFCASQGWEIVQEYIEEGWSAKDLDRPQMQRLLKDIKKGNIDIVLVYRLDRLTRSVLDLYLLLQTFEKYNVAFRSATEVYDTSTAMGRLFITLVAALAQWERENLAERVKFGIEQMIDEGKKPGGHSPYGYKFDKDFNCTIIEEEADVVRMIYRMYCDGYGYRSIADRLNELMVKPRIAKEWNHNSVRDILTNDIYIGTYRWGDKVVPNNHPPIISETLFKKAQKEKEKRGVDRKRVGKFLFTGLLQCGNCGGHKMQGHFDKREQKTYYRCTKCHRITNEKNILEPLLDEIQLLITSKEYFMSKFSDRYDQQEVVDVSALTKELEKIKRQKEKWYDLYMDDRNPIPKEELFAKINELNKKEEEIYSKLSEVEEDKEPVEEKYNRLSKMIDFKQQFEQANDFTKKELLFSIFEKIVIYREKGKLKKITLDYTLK

B1: Int27 attB (dsDNA)
DNA 1: AATACTAATAATAGCTAGTACAATTAACATCTCTATCAAAGTAAAAGCTTTTAGCTCTTTCT
DNA 2: AGAAAGAGCTAAAAGCTTTTACTTTGATAGAGATGTTAATTGTACTAGCTATTATTAGTATT
B2: Int34 attB (dsDNA)
DNA 1: AATCTGCAAACATGTATGGCGGTACATGTATCAACATTGGTTGTATTCCTACAAAGACACTCAT
DNA 2: ATGAGTGTCTTTGTAGGAATACAACCAATGTTGATACATGTACCGCCATACATGTTTGCAGATT
B3: Int34 attP (dsDNA)
DNA 1: ATTTTTGTACGGAAGTAGATACTATCTTTCAATATCCATGTTACTTAGTGCCATACAAAAA
DNA 2: TTTTTGTATGGCACTAAGTAACATGGATATTGAAAGATAGTATCTACTTCCGTACAAAAAT
B4: Int7 attB (dsDNA)
DNA 1: AGACGAGAAACGTTCCGTCCGTCTGGGTCAGTTGGGCAAAGTTGATGACCGGGTCGTCCGTT
DNA 2: AACGGACGACCCGGTCATCAACTTTGCCCAACTGACCCAGACGGACGGAACGTTTCTCGTCT
B5: Int7 attP (dsDNA)
DNA 1: GTGTTATAAACCTGTGTGAGAGTTAAGTTTACATGCCTAACCTTAACTTTTACGCAGGTTCAGCTT
DNA 2: AAGCTGAACCTGCGTAAAAGTTAAGGTTAGGCATGTAAACTTAACTCTCACACAGGTTTATAACAC

Legend:
Test in all cases: cell_activity; attB x attP EGFP inversion reporter, HEK293FT
Int27 = target: T1, Int27; details: tags: C-terminal GS linker-SV40 NLS
Int34 = target: T2, Int34; details: tags: C-terminal GS linker-SV40 NLS; chain copies: 4
Int7 = target: T3, Int7; details: tags: C-terminal GS linker-SV40 NLS

Row | Binder | binding signal (Int34) | binding signal (Int7) | also measured
1 | B1 | – | – | binding signal (Int27): 2.2 fraction of Bxb1
2 | B2 | 0.408 fraction of Bxb1 | – | –
3 | B3 | 0.408 fraction of Bxb1 | – | –
4 | B4 | – | 0.096 fraction of Bxb1 | –
5 | B5 | – | 0.096 fraction of Bxb1 | –
